From the DeepSol protein solubility set

Assay: soluble on expression in E. coli; label from the status in PepcDB or PDB records

Row | Sequence | soluble on expression in E. coli
1 | MGCGQLDRVDSILVGMSYYNFPSPQGIGNVLVGKAKQTVRIRIPSTNLRKEVVRVGGLLSVSVMAVALSSCSAHPESSLSKSNQLGYAVNDRLVTTNAGSTEGASTNAQLLAGRLYPAPYVSGPKGQLIPNLSMASAQVLPGINQKIVYTISPDAVYSDGEAVTCDDYLLAFTAGTYDYVFDSYMPLMKQIDKVECKPRDREVTVTLKENFGPRWRQLFPAGVILPAHAIARKMGVTLEDLNTVLQSRDVDALQPIAEVWNRGFSLDQFDPDLQVSSGPYKVDRVGDRGEVYLTRNPHYGGQPAEIESVVVWPKGANLKELKDTGSLEIAEVTSSKEIDWLDRNDSTNSFDVQAQSGVLTEELLLANAGVFATRENRQAFASCIDQSSIASESSELSGVEVAPVTARTIRANDPMAGHVKDLTEAHLHSDVEQARRLAGQTIAIGYEGPDARMEAIVANIRRSCEPAGIIVVDAHQEGSGIRDLSRSFTTDHGYQFDKIGTIDVVLKALDPATEFESVATTSNNIAATRQAELSTWDVVPSIPLASQPRVFVVDRRVSNVVLNTDLAGIGWNMDRWFFSKNSK | not soluble
2 | MGCSSQTHSSQKETTIPVTLHVEDAKGLPVEGVQVTIVKAPSSDEEPSTEIGEILGKTDKNGDIKWDTGRKGDYSVALTKGETSVTHHISLTEDKKDHAIPLVFKELEHHHHHH | soluble
3 | MGDILAHESELLGLVKEYLDFAEFEDTLKTFSKECKIKGKPLCKTVGGSFRDSKSLTIQKDLVAAFDNGDQKVFFDLWEEHISSSIRDGDSFAQKLEFYLHIHFAIYFLKYSVGRPDKEELDEKISYFKTYLETKGAALSQTTEFLPFYALPFVPNPMVHPSFKELFQDSWTPELKLKLEKFLALISKASNTPKLLTIYKENGQSNKEILQQLHQQLVEAERRSVTYLKRYNKIQADYHNLIGVTAELVDSLEATVSGKMITPEYLQSVCVRLFSNQMRQSLAHSVDFTRPGTASTMLRASLAPVKLKDVPLLPSLDYEKLKKDLILGSDRLKAFLLQALRWRLTTSHPGEQRETVLQAYISNDLLDCYSHNQRSVLQLLHSTSDVVRQYMARLINAFASLAEGRLYLAQNTKVLQMLEGRLKEEDKDIITRENVLGALQKFSLRRPLQTAMIQDGLIFWLVDVLKDPDCLSDYTLEYSVALLMNLCLRSTGKNMCAKVAGLVLKVLSDLLGHENHEIQPYVNGALYSILSVPSIREEARAMGMEDILRCFIKEGNAEMIRQIEFIIKQLNSEELPDGVLESDDDEDEDDEEDHDIMEADLDKDELIQPQLGELSGEKLLTTEYLGIMTNTGKTRRKGLANVQWSGDEPLQRPVTPGGHRNGYPV | not soluble
4 | MGDTFIRHIALLGFEKRFVPSQHYVYMFLVKWQDLSEKVVYRRFTEIYEFHKTLKEMFPIEAGAINPENRIIPHLPAPKWFDGQRAAENRQGTLTEYCSTLMSLPTKISRCPHLLDFFKVRPDDLKLPTDNQTKKPETYLM | soluble
5 | MGEHICFRRNERLATVNPYWRGNPMVRGRFFNRQHRFRPGMGSVLKWRLSPNPQRKEKKTVKWDPKVCYLRSLDAVVGDSLIWLGHNSFFLQLAGKRIMFDPVFGNIPFVKRQSEFPANPDIFTEIDYLLISHDHFDHLDKQSITRLLNNNPQMKLFCGLGTGELIKSWFPEMRVIEAGWYQQLEDEGLKITFLPAQHWSKRSVRDGGQRLWGAFMLQGNGVSLYYSGDTGYSTHFREIPDLFGAPDYALLGIGAYKPRWFMRPNHISPYESLTASEEMHAGITIPMHYGTFDLSDEPLHDPPKVFAAEAKKRKIRVEIPYLGEIVKLSKRK | not soluble
6 | MGEHKQNLSLQDMTHSDTGQIAYLKKVCTDDLAKNFPDLPPMTPGITVWALFGETGYPIILSDERSIALAGANEHELQIVTLH | not soluble
7 | MGEIQVVAFRLGDEEFCLEISKVREIKEMMPITRVPNAPDFVEGVINLRGQITTVINLKKLLGYYDDGDLSNKKIIIAEVNGEIVGVIVDSVSDVITLTEDQIEQPPKTLASRVDMKAIKGIAKINNGERLLIMLDLDKLIGESF | soluble
8 | MGFFSGQFSNVVEWEEFREDMIFWKWHNREIKRGSKLIIRPGQDAIFLFNGRIEGIFKDEGDYDIESQIIPFLSTLQGFKFGFNSGMRAEVLFVNTKEFTAKWGTKSAINIPTPQLPGGIPIRANGTFTFKVNDYVKLIDRIAGVKDSFLVEDVRLRIMALLDQLMMKWIVQEGRDMFNLQSNSFAIADGLKTDLDMQIYDMGITVSQLTIMSFTYPEEIQQMIAKAASHTMIGDMGRYQQVSVLDGIAGGKLEHHHHHH | not soluble
9 | MGFIMLLRSRFLKVIHVRKQLSACSRFAIQTQTRCKSTDASEDEVKHFQELAPTWWDTDGSQRILHKMNLTRLDFVQRTVRNQVKIQNPEIFVPGFNYKEFLPEYVCDNIQREMQESIETNLDKRPEVSVLDVGCGGGILSESLARLKWVKNVQGIDLTRDCIMVAKEHAKKDPMLEGKINYECKALEDVTGQFDIITCMEMLEHVDMPSEILRHCWSRLNPEKGILFLSTINRDLISWFTTIFMGENVLKIVPKGTHHLSKYINSKEILAWFNDNYSGQFRLLDLKGTMYLPYQGWVEHDCSDVGNYFMAIQRLN | not soluble
10 | MGFLEDKKRTLMNLELAIREGLVDEEIIPILNKINEIDNYYTTSSCIGRVGIMEIPKDKNPKLYSRWLGKWHHYASYDELFNALKNKKEGYIVFVMNSPILHIACKDIESAKKMLELAIHSGLKASSIKSISDKRVIVEILTTYKVDTPIGEDGEIFVDNNYLKFLLDYSNSKLKRAREILMRWANRLDELKK | soluble
11 | MGGIFSKKEKSPKSAPVSDQDNAILALKTQRDKMKQMIKRKENCLEKERQLAKQLIKDGRKDRALLLLKKKRYQEKIIDQTLNHLSKIEQMVNDLEFAEVQQRVTDGLRQGNEALKKMNQLFDIDEIDRIMEETKEAAEYQEEISNMLSGQLSNTDVSDVEKELEDLLAAEWGTVQLPEAPSHELPEAERERQKEKEKPRREKIALEA | not soluble
12 | MGGKKFQAMPQLPSTVLDRVFEQARQQPEAIALRRCDGTSALRYRELVAEVGGLAADLRAQSVSRGSRVLVISDNGPETYLSVLACAKLGAIAVMADGNLPIAAIERFCQITDPAAALVAPGSKMASSAVPEALHSIPVIAVDIAAVTRESEHSLDAASLAGNADQGSEDPLAMIFTSGTTGEPKAVLLANRTFFAVPDILQKEGLNWVTWVVGETTYSPLPATHIGGLWWILTCLMHGGLCVTGGENTTSLLEILTTNAVATTCLVPTLLSKLVSELKSANATVPSLRLVGYGGSRAIAADVRFIEATGVRTAQVYGLSETGCTALCLPTDDGSIVKIEAGAVGRPYPGVDVYLAATDGIGPTAPGAGPSASFGTLWIKSPANMLGYWNNPERTAEVLIDGWVNTGDLLERREDGFFYIKGRSSEMIICGGVNIAPDEVDRIAEGVSGVREAACYEIPDEEFGALVGLAVVASAELDESAARALKHTIAARFRRESEPMARPSTIVIVTDIPRTQSGKVMRASLAAAATADKARVVVRG | soluble
13 | MGGSHHHHHHGMASALANEEDDPVVQEIDVYLAKSLAEKLYLFQYPVRPASMTYDDIPHLSAKIKPKQQKVELEMAIDTLNPNYCRSKGEQIALNVDGACADETSTYSSKLMDKQTFCSSQTTSNTSRYAAALYRQGELHLTPLHGILQLRPSFSYLDKADAKHREREAANEAGDSSQDEAEDDVKQITVRFSRPESEQARQRRVQSYEFLQKKHAEEPWVHLHYYGLRDSRSEHERQYLLCPGSSGVENTELVKSPSEYLMMLMPPSQEEEKDKPVAPSNVLSMAQLRTLPLADQIKILMKNVKVMPFANLMSLLGPSIDSVAVLRGIQKVAMLVQGNWVVKSDILYPKDSSSPHSGVPAEVLCRGRDFVMWKFTQSRWVVRKEVATVTKLCAEDVKDFLEHMAVVRINKGWEFILPYDGEFIKKHPDVVQRQHMLWTGIQAKLEKVYNLVKETMPKKPDAQSGPAGLVCGDQRIQVAKTKAQQNHALLERELQRRKEQLRVPAVPPGVRIKEEPVSEEGEEDEEQEAEEEPMDTSPSGLHSKLANGLPLGRAAGTDSFNGHPPQGCASTPVARELKAFVEATFQRQFVLTLSELKRLFNLHLASLPPGHTLFSGISDRMLQDTVLAAGCKQILVPFPPQTAASPDEQKVFALWESGDMSDQDCCVSYGGMWYLKGTVQS | not soluble
14 | MGGSHHHHHHGMASALAQVAMSTLPVEDEESSESRMVVTFLMSALESMCKELAKSKAEVACIAVYETDVFVVGTERGRAFVNTRKDFQKDFVKYCVEEEEKAAEMHKMKSTTQANRMSVDAVEIETLRKTVEDYFCFCYGKALGKSTVVPVPYEKMLRDQSAVVVQGLPEGVAFKHPENYDLATLKWILENKAGISFIIKRPFLEPKKHVGGRVMVTDADRSILSPGGSCGPIKVKTEPTEDSGISLEMAAVTVKEESEDPDYYQYNIQGSHHSSEGNEGTEMEVPAEG | not soluble
15 | MGGSHHHHHHGMASLAPGSSRVELFKRQSSKVPFEKDGKVTERVVHSFRLPALVNVDGVMVAIADARYETSFANSLIDTVAKYSVDDGETWETQIAIKNSRASSVSRVVDPTVIVKGNKLYVLVGSYNSSRSYWTSHGDARDWDILLAVGEVTKSTAGGKITASIKWGSPVSLKEFFPAEMEGMHTNQFLGGAGVAIVASNGNLVYPVQVTNKKKQVFSKIFYSEDEGKTWKFGKGRSAFGCSEPVALEWEGKLIINTRVDYRRRLVYESSDMGNTWLEAVGTLSRVWGPSPKSNQPGSQSSFTAVTIEGMRVMLFTHPLNFKGRWLRDRLNLWLTDNQRIYNVGQVSIGDENSAYSSVLYKDDKLYCLHEINSNEVYSLVFARLVGELRIIKSVLQSWKNWDSHLSSICTPADPAASSSERGCGPAVTTVGLVGFLSHSATKTEWEDAYRCVNASTANAERVPNGLKFAGVGGGALWPVSQQGQNQRYHFANHAFTLVASVTIHEVPKGASPLLGASLDSSGGKKLLGLSYDKRHQWQPIYGSTPVTPTGSWEMGKRYHVVLTMANKIGSVYIDGEPLEGSGQTVVPDERTPDISHFYVGGYKRSGMPTDSRVTVNNVLLYNRQLNAEEIRTLFLSQDLIGTEAHMD | soluble
16 | MGHHHHHHGGHMSLGALILSDRDIRALLAIGDLVVEPLSGDTVRENGLDLRLGRGFCRFKRSDRVLDPRAPGSPGEFYECGEGDEIIVGPGEHMLLHTQEYIRLPGYVAGLVNLRSTWARTGIYIPATVVDAGFEGQLTIEVVGSGFPVKLYPGDRFLHLVLVKLQSPAMNPYRGRYQGQRGVRLPKLFAKNTGEGGS | soluble
17 | MGHHHHHHHHHHSSGHIEGRHMANPLAGKPFYVDPASAAMVAARNANPPNAELTSVANTPQSYWLDQAFPPATVGGTVARYTGAAQAAGAMPVLTLYGIPHRDCGSYASGGFATGTDYRGWIDAVASGLGSSPATIIVEPDALAMADCLSPDQRQERFDLVRYAVDTLTRDPAAAVYVDAGHSRWLSAEAMAARLNDVGVGRARGFSLNVSNFYTTDEEIGYGEAISGLTNGSHYVIDTSRNGAGPAPDAPLNWCNPSGRALGAPPTTATAGAHADAYLWIKRPGESDGTCGRGEPQAGRFVSQYAIDLAHNAGQ | soluble
18 | MGHHHHHHSHAEDATERACGLTMDPECAQLLPALCAVLVDPRQPVADDTCLEKLLDWFKTVTEGESSVVLLQEHPCLVELLSHVLKVQDLSSGVLSFSLRLAGTFAAQENCFQYLQQGELLPGLFGEPGPLGRATWAVPTVRSGWIQGLRSLAQHPSALRFLADHGAVDTIFSLQGDSSLFVASAASQLLVHVLALSMRGGAEGQPCLPGGDWPACAQKIMDHVEESLCSAATPKVTQALNVLTTTFGRCQSPWTEALWVRLSPRVACLLERDPIPAAHSFVDLLLCVARSGPRDAAGGPGWATVFLG | not soluble
19 | MGHHHHHHSHALLEKEILEKVSSPFIVSLAYAFESKTHLCLVMSLMNGGDLKFHIYNVGTRGLDMSRVIFYSAQIACGMLHLHELGIVYRDMKPENVLLDDLGNCRLSDLGLAVEMKGGKPITQRAGTNGYMAPEILMEKVSYSYPVDWFAMGCSIYEMVAGRTPFKDYKEKVSKEDLKQRTLQDEVKFQHDNFTEEAKDICRLFLAKKPEQRLGSR | not soluble
